Measured values: IntAct's records for PubMed 18239685

Target: taxb1_human TAX1BP1 (UniProt Q86VP1)

Substance: Polyubiquitin-C (Homo sapiens) (from UniProt P0CG48) I44A
- effect of a mutation on the interaction: decreasing interaction
